In patent publication US20260001928A1 (CORTERIA PHARMACEUTICALS, priority 2022, published 2026):
*1 amine or outer side, *2 acyl side, *3 side chain or, on linkers, in order; H or OH if unused. Where no end group is shown, it is not given here. Side-chain parts run from the residue outwards. [ ]: non-standard residue; d: D form. The star is where a group is joined. C20 diacid = O=C(O)CCCCCCCCCCCCCCCCCCC(=O)*; C16 diacid = O=C(O)CCCCCCCCCCCCCCC(=O)*; γGlu = O=C(O)[C@H](CCC(=O)[*:2])N[*:1]; NMeI = CC[C@H](C)[C@H](NC)C(=O)O; Pentanoyl = CCCCC(=O)*; AEEA = NCCOCCOCC(=O)O; Aib = CC(C)(N)C(=O)O

target: human corticotropin-releasing factor 2a (CRF2a receptor) (human), Q13324; test: cell-based or functional assay
Sequence (Q13324 20-411): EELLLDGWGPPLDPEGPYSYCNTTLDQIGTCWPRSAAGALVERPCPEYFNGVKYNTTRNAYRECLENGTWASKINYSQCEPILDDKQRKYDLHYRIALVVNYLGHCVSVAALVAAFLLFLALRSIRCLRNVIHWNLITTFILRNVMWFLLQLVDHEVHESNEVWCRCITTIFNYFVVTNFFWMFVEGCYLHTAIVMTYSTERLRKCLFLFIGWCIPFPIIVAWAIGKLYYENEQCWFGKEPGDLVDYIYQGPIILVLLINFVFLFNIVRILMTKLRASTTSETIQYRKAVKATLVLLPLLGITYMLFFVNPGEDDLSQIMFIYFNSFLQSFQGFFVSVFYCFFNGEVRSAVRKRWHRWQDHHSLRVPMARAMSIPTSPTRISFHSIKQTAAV

Binder | EC50 [nM] (cAMP)
H-IVLSLD[dV]PIKLK([γGlu-C16 diacid])QILLKQERQKKQREQAEKNTQILEQV-NH2 (SMILES CC[C@H](C)[C@H](N)C(=O)N[C@H](C(=O)N[C@@H](CC(C)C)C(=O)N[C@@H](CO)C(=O)N[C@@H](CC(C)C)C(=O)N[C@@H](CC(=O)O)C(=O)N[C@@H](C(=O)N1CCC[C@H]1C(=O)N[C@H](C(=O)N[C@@H](CCCCN)C(=O)N[C@@H](CC(C)C)C(=O)N[C@@H](CCCCNC(=O)CC[C@H](NC(=O)CCCCCCCCCCCCCCC(=O)O)C(=O)O)C(=O)N[C@@H](CCC(N)=O)C(=O)N[C@H](C(=O)N[C@@H](CC(C)C)C(=O)N[C@@H](CC(C)C)C(=O)N[C@@H](CCCCN)C(=O)N[C@@H](CCC(N)=O)C(=O)N[C@@H](CCC(=O)O)C(=O)N[C@@H](CCCNC(=N)N)C(=O)N[C@@H](CCC(N)=O)C(=O)N[C@@H](CCCCN)C(=O)N[C@@H](CCCCN)C(=O)N[C@@H](CCC(N)=O)C(=O)N[C@@H](CCCNC(=N)N)C(=O)N[C@@H](CCC(=O)O)C(=O)N[C@@H](CCC(N)=O)C(=O)N[C@@H](C)C(=O)N[C@@H](CCC(=O)O)C(=O)N[C@@H](CCCCN)C(=O)N[C@@H](CC(N)=O)C(=O)N[C@H](C(=O)N[C@@H](CCC(N)=O)C(=O)N[C@H](C(=O)N[C@@H](CC(C)C)C(=O)N[C@@H](CCC(=O)O)C(=O)N[C@@H](CCC(N)=O)C(=O)N[C@H](C(N)=O)C(C)C)[C@@H](C)CC)[C@@H](C)O)[C@@H](C)CC)[C@@H](C)CC)C(C)C)C(C)C) [SEQ ID NO 14] | 0.26
Pentanoyl-VLSLD[dV]PIKLK([AEEA-γGlu-C20 diacid])KILLEQEKQKKQREQAETN[Aib]QILAQV-NH2 (SMILES CCCCC(=O)N[C@H](C(=O)N[C@@H](CC(C)C)C(=O)N[C@@H](CO)C(=O)N[C@@H](CC(C)C)C(=O)N[C@@H](CC(=O)O)C(=O)N[C@@H](C(=O)N1CCC[C@H]1C(=O)N[C@H](C(=O)N[C@@H](CCCCN)C(=O)N[C@@H](CC(C)C)C(=O)N[C@@H](CCCCNC(=O)COCCOCCNC(=O)CC[C@H](NC(=O)CCCCCCCCCCCCCCCCCCC(=O)O)C(=O)O)C(=O)N[C@@H](CCCCN)C(=O)N[C@H](C(=O)N[C@@H](CC(C)C)C(=O)N[C@@H](CC(C)C)C(=O)N[C@@H](CCC(=O)O)C(=O)N[C@@H](CCC(N)=O)C(=O)N[C@@H](CCC(=O)O)C(=O)N[C@@H](CCCCN)C(=O)N[C@@H](CCC(N)=O)C(=O)N[C@@H](CCCCN)C(=O)N[C@@H](CCCCN)C(=O)N[C@@H](CCC(N)=O)C(=O)N[C@@H](CCCNC(=N)N)C(=O)N[C@@H](CCC(=O)O)C(=O)N[C@@H](CCC(N)=O)C(=O)N[C@@H](C)C(=O)N[C@@H](CCC(=O)O)C(=O)N[C@H](C(=O)N[C@@H](CC(N)=O)C(=O)NC(C)(C)C(=O)N[C@@H](CCC(N)=O)C(=O)N[C@H](C(=O)N[C@@H](CC(C)C)C(=O)N[C@@H](C)C(=O)N[C@@H](CCC(N)=O)C(=O)N[C@H](C(N)=O)C(C)C)[C@@H](C)CC)[C@@H](C)O)[C@@H](C)CC)[C@@H](C)CC)C(C)C)C(C)C) [SEQ ID NO 235] | 0.16
[NMeI]VLSLD[dV]PIKLK([AEEA-γGlu-C20 diacid])KILLEQEKQK[Aib]QREQAETN[Aib]QILAQV-NH2 (N-terminus assumed; SMILES CC[C@H](C)[C@H](NC)C(=O)N[C@H](C(=O)N[C@@H](CC(C)C)C(=O)N[C@@H](CO)C(=O)N[C@@H](CC(C)C)C(=O)N[C@@H](CC(=O)O)C(=O)N[C@@H](C(=O)N1CCC[C@H]1C(=O)N[C@H](C(=O)N[C@@H](CCCCN)C(=O)N[C@@H](CC(C)C)C(=O)N[C@@H](CCCCNC(=O)COCCOCCNC(=O)CC[C@H](NC(=O)CCCCCCCCCCCCCCCCCCC(=O)O)C(=O)O)C(=O)N[C@@H](CCCCN)C(=O)N[C@H](C(=O)N[C@@H](CC(C)C)C(=O)N[C@@H](CC(C)C)C(=O)N[C@@H](CCC(=O)O)C(=O)N[C@@H](CCC(N)=O)C(=O)N[C@@H](CCC(=O)O)C(=O)N[C@@H](CCCCN)C(=O)N[C@@H](CCC(N)=O)C(=O)N[C@@H](CCCCN)C(=O)NC(C)(C)C(=O)N[C@@H](CCC(N)=O)C(=O)N[C@@H](CCCNC(=N)N)C(=O)N[C@@H](CCC(=O)O)C(=O)N[C@@H](CCC(N)=O)C(=O)N[C@@H](C)C(=O)N[C@@H](CCC(=O)O)C(=O)N[C@H](C(=O)N[C@@H](CC(N)=O)C(=O)NC(C)(C)C(=O)N[C@@H](CCC(N)=O)C(=O)N[C@H](C(=O)N[C@@H](CC(C)C)C(=O)N[C@@H](C)C(=O)N[C@@H](CCC(N)=O)C(=O)N[C@H](C(N)=O)C(C)C)[C@@H](C)CC)[C@@H](C)O)[C@@H](C)CC)[C@@H](C)CC)C(C)C)C(C)C) [SEQ ID NO 234] | 0.09

Now from value to binder:

EC50 [nM] (cAMP) | Binder
0.11 | Ac-IVLSLD[dV]PIKLK([AEEA-AEEA-γGlu-C20 diacid])KILLEQEKQKKQREQAETN[Aib]QILAQV-NH2 (SMILES CC[C@H](C)[C@H](NC(C)=O)C(=O)N[C@H](C(=O)N[C@@H](CC(C)C)C(=O)N[C@@H](CO)C(=O)N[C@@H](CC(C)C)C(=O)N[C@@H](CC(=O)O)C(=O)N[C@@H](C(=O)N1CCC[C@H]1C(=O)N[C@H](C(=O)N[C@@H](CCCCN)C(=O)N[C@@H](CC(C)C)C(=O)N[C@@H](CCCCNC(=O)COCCOCCNC(=O)COCCOCCNC(=O)CC[C@H](NC(=O)CCCCCCCCCCCCCCCCCCC(=O)O)C(=O)O)C(=O)N[C@@H](CCCCN)C(=O)N[C@H](C(=O)N[C@@H](CC(C)C)C(=O)N[C@@H](CC(C)C)C(=O)N[C@@H](CCC(=O)O)C(=O)N[C@@H](CCC(N)=O)C(=O)N[C@@H](CCC(=O)O)C(=O)N[C@@H](CCCCN)C(=O)N[C@@H](CCC(N)=O)C(=O)N[C@@H](CCCCN)C(=O)N[C@@H](CCCCN)C(=O)N[C@@H](CCC(N)=O)C(=O)N[C@@H](CCCNC(=N)N)C(=O)N[C@@H](CCC(=O)O)C(=O)N[C@@H](CCC(N)=O)C(=O)N[C@@H](C)C(=O)N[C@@H](CCC(=O)O)C(=O)N[C@H](C(=O)N[C@@H](CC(N)=O)C(=O)NC(C)(C)C(=O)N[C@@H](CCC(N)=O)C(=O)N[C@H](C(=O)N[C@@H](CC(C)C)C(=O)N[C@@H](C)C(=O)N[C@@H](CCC(N)=O)C(=O)N[C@H](C(N)=O)C(C)C)[C@@H](C)CC)[C@@H](C)O)[C@@H](C)CC)[C@@H](C)CC)C(C)C)C(C)C) [SEQ ID NO 238]
0.54 | Ac-IVLSLD[dV]PIKLK([AEEA-AEEA-γGlu-C20 diacid])KILLEQEKQKEQREQAETN[Aib]QILAQV-NH2 (SMILES CC[C@H](C)[C@H](NC(C)=O)C(=O)N[C@H](C(=O)N[C@@H](CC(C)C)C(=O)N[C@@H](CO)C(=O)N[C@@H](CC(C)C)C(=O)N[C@@H](CC(=O)O)C(=O)N[C@@H](C(=O)N1CCC[C@H]1C(=O)N[C@H](C(=O)N[C@@H](CCCCN)C(=O)N[C@@H](CC(C)C)C(=O)N[C@@H](CCCCNC(=O)COCCOCCNC(=O)COCCOCCNC(=O)CC[C@H](NC(=O)CCCCCCCCCCCCCCCCCCC(=O)O)C(=O)O)C(=O)N[C@@H](CCCCN)C(=O)N[C@H](C(=O)N[C@@H](CC(C)C)C(=O)N[C@@H](CC(C)C)C(=O)N[C@@H](CCC(=O)O)C(=O)N[C@@H](CCC(N)=O)C(=O)N[C@@H](CCC(=O)O)C(=O)N[C@@H](CCCCN)C(=O)N[C@@H](CCC(N)=O)C(=O)N[C@@H](CCCCN)C(=O)N[C@@H](CCC(=O)O)C(=O)N[C@@H](CCC(N)=O)C(=O)N[C@@H](CCCNC(=N)N)C(=O)N[C@@H](CCC(=O)O)C(=O)N[C@@H](CCC(N)=O)C(=O)N[C@@H](C)C(=O)N[C@@H](CCC(=O)O)C(=O)N[C@H](C(=O)N[C@@H](CC(N)=O)C(=O)NC(C)(C)C(=O)N[C@@H](CCC(N)=O)C(=O)N[C@H](C(=O)N[C@@H](CC(C)C)C(=O)N[C@@H](C)C(=O)N[C@@H](CCC(N)=O)C(=O)N[C@H](C(N)=O)C(C)C)[C@@H](C)CC)[C@@H](C)O)[C@@H](C)CC)[C@@H](C)CC)C(C)C)C(C)C) [SEQ ID NO 236]
0.41 | [NMeI]VLSLD[dV]PIKLK([AEEA-AEEA-γGlu-C20 diacid])KILLEQEKQKEQREQAETN[Aib]QILAQV-NH2 (N-terminus assumed; SMILES CC[C@H](C)[C@H](NC)C(=O)N[C@H](C(=O)N[C@@H](CC(C)C)C(=O)N[C@@H](CO)C(=O)N[C@@H](CC(C)C)C(=O)N[C@@H](CC(=O)O)C(=O)N[C@@H](C(=O)N1CCC[C@H]1C(=O)N[C@H](C(=O)N[C@@H](CCCCN)C(=O)N[C@@H](CC(C)C)C(=O)N[C@@H](CCCCNC(=O)COCCOCCNC(=O)COCCOCCNC(=O)CC[C@H](NC(=O)CCCCCCCCCCCCCCCCCCC(=O)O)C(=O)O)C(=O)N[C@@H](CCCCN)C(=O)N[C@H](C(=O)N[C@@H](CC(C)C)C(=O)N[C@@H](CC(C)C)C(=O)N[C@@H](CCC(=O)O)C(=O)N[C@@H](CCC(N)=O)C(=O)N[C@@H](CCC(=O)O)C(=O)N[C@@H](CCCCN)C(=O)N[C@@H](CCC(N)=O)C(=O)N[C@@H](CCCCN)C(=O)N[C@@H](CCC(=O)O)C(=O)N[C@@H](CCC(N)=O)C(=O)N[C@@H](CCCNC(=N)N)C(=O)N[C@@H](CCC(=O)O)C(=O)N[C@@H](CCC(N)=O)C(=O)N[C@@H](C)C(=O)N[C@@H](CCC(=O)O)C(=O)N[C@H](C(=O)N[C@@H](CC(N)=O)C(=O)NC(C)(C)C(=O)N[C@@H](CCC(N)=O)C(=O)N[C@H](C(=O)N[C@@H](CC(C)C)C(=O)N[C@@H](C)C(=O)N[C@@H](CCC(N)=O)C(=O)N[C@H](C(N)=O)C(C)C)[C@@H](C)CC)[C@@H](C)O)[C@@H](C)CC)[C@@H](C)CC)C(C)C)C(C)C) [SEQ ID NO 237]
